Drawing on a protein production outcome set (Wang et al. 2014), this text covers protein production for 18 sequences.

This series is described as follows: label from the status in PepcDB records.
As to “MTPLMLMVVAGAGIALLLFLVLKYKFQPFVALMLVSIIVALVAGVKPADLVATIEGGMGKTLGHIAIIIALGAMIGRIIELSGGAEALAKTLINRFGNRRTPLALTVAGFMVGIPVFFEVGVIILMPLAYGVARAARKPLLIFALPMCAALLAVHAFLPPHPGAVAAASQLGADLGRVLMLGIPIVAVLCMIGYFVAGRMTRKTYPMTDDIRAEVYGPHVTNEDLEAWARNDYSGAREATETKTLGAEESASSLASKLPPAPAPGFGLIIALILLPIVLILMGTLATTLLPATSTLRAVLTVLGAPLVALLIDTLLCAWLLGSRRGWSRTQVSDVIGSALPGVAMVILIAGAGGVFGKVLVDTGIGAVVSEALRNTGLPVLALGFLLTLLLRAVQGSTTVALVTTAGILSPLIATLDLSANHLALLCLAMGGGGLAMSHINDAGYWMFTKLAGLNVADGLRTWTVLVTLLGTLGFVITLLLWPFV”, the protein production entry is “failed”.
On to “MTPPIINLPQRLGRSRRLAYGAATAGAWMVYFYLWAPLATLIAWFFGLRSAYTELYLQHNALDPFALGSLPVIALMSAITTVGWAEYNRLRFVNADKRRRPRTVAEPDVDQRLGATEQLGTLLRHSRISSVAMDKFARPVAVRVVRHR”, for which the protein production result is “failed”.
Consider “MTPSRDTKIILEGFCHPALNNPKPISVRFEKSILMVTGVNAGGKTMLLKSILSSAFLARYLIPMPILASKSSIGSFKGIAAVLDDPQSAKNDISTFAGRMLSFERFFKERGFLVGVDEIELGTDSDEAASLFKVILEQLIKRDFKIIITTHHKRLAALMAANEEVELMAALYDEKRQMPTFSFLQGTIGKSYAFETAERYGIPPFVIKEAKEVYGQDKEK”, for which the protein production result is listed as “failed”.
For “MTQAFSRVRFIMTQPSHPGNVGSAARAIKTTGFGELVLVAPRFPDMTAQPEAVTLASGALDVLERAAVHDTLEEALAPVTLAFALTARVRDLGPPPCDIREAAGLARRHLDDTEAGVVAIVLGTERAGLTNAQIELCHRICHIPANPQYSSLNVAQALQLAAWELRYALLAGTGQSLLPASSAQQANPGAAPADGAAVQALLAHWEQALVAVGFLDPAHPKKLMPRMKHLLTRSALSRDEVDMLRGVCTAMIAPNRPK”, the protein production result is listed as “failed”.
Take “MTQDPIANLKLARKGPIVSIIVYLSLSVAKLLAGYLLNASSLIADGFNNLSDIVGNVALLIGLHLASQPADANHKFGHWKIEDLSSLVTSFIMFLVGFQVLIHTIKSIFSGQQVDIDPLGAIVGIVSAFVMLGVYVFNKRLSKRVKSSALVAASKDNLADAVTSIGTSIAIIAASLHLPVIDHIAAMIITFFILKTAFDIFMESSFSLSDGFDSRHLKKYEKAILEIPKIVAVKSQRARTYGSNVYLDIVLEMNPDLSVYESHSITEKVEQLLSDQFSIYDIDIHVEPAMIPEEEIFDNVAKKLYRYEKLILSKVPDYDHYIAKSFQLIDANGQTVNYEQFLNQEIYYPSNFNHFQIESISQKTMLVTYQLNGNQRTSIWRRHESWSLLFHQITPIAKKQLHHTHYRIVKM”: the protein production entry is “failed”.
Consider “MTQHPFISRVAVRNYKSIGYCDVNLRPLTYLVGHNGAGKSNFMDALHFVCDALSYSLDSALNERGGINEVRRRSGGHPTHFALRVEFVMQSGQAGRYGFVIGALKNGGYEVQREECVVAGIGKGPFFRIEKGKLRDSSETTFPSVTADRLALVAASGLTAFRPVFDALTAMGFYNLNPKLMRELQKPQDGRLLRPAGENIASVIGHLEKVAPAQMALIQEYLHSVAPMVHGVERKPIGPMETLEFRQDMAGSKHPWRFLAQNMSDGTLRALGVLSALLQGNVDYSPTLIGIEEPETALHPAASAALREALVRASETTQVLVTSHSPDLLDDHSIDADAVLAVVSEAGETKVAPLDEGSRQVMRDHLFSAGELLRMNQLAPDRASLEQQDKAASGDLFGETESVLEHHHHHH”, for which the protein production result is “not failed”.
Take “MTQMKIFVIGAHGQIGKKIVSKLVAQGDQVYAGIRQPEQAEAFEDAGAQPVQFNLMAQPEDLALAFNGMDAIVFAAGSGGQTGYDMTLMIDLDGAVKSMVAAKIAGVKRYVIISAEFTPDRSRWPRALQPYYVAKYYADEWLKNRTQLDYTILQPGTLINDAGTGKVTVNPDVGGEITRDDVATFTVQTLHTPATVGKTIALINGDTPISKAVQQA”: the protein production result is listed as “failed”.
Regarding “MTQNVLNERPAGQKPVALSSFRGCINGLYGDVLQGWAIDITQPDQRPVIEVFVDGASVALARADQHEPNAPHGDHFHGFTVQLRQSLLADANRITAQIANTGIHLEGEIELPSQPPQETAAVASQVWHTGGLRVGGWSWDPQAPHRHVVVTLREGSRVVAQVTCNTHHQALAYRATSDHGFAIDLPWELADGKLHVIEVTNDLGQSLPGSPIRLRCRPEGLEGLLHQLELKPDAAMQALVAEVAKEQSSRLPKSAGWQHYPRWYDAFQKREPIAAIPSRFRPGLLLLSEGDATLEKISLDSLGDDAESVHQLAKAAPADLLPAVEQLLAAGCDSIIQIAAGDKLAPRAMAQLRNLLEEGCAWAYADCDRDGPQGQRSQPWFKPVWDIDLFIGADIFSTGAIFSAAIVKEALALLKAGKKQSAINRHDLIAGIALATELNGRSVTHLPRVLYHRSSDTCTSPEQAAPSKQRKDAVAWLCQGLAPGAHVSAVPDYPALLRAHWPLPEQLPRVSLIVPTRDQYKLLHACIEGLLNNTDYPDLEIIVVDNQSTDPQTLAYLAELKQRGVKILAHPHPFNYSTINNRAASAATGELIGLVNNDIEIIESGWLKEMVSQALRPGIGAVGAKLLWPNRMVQHGGVVVGVNGLAAHAGNTLEQRDAGYLGMNQVTRRQSAVTAACLLLRKSLFDSIQGLDERAFPVAFNDVDLCLRIHELGLRNVWTAFAQLIHAESASRGKDISPEKMARAQREQQLFTERWSVSYRDPYYHPALSLDYLTGPYGGLSLPPEPEYCAPRKLASSETHGHIYLADPS”, the protein production result was “failed”.
For the sequence “MTQRDTGRLDAIVLAAGRGVRFGGGKLTALLDGDPLVAAALLTAFLAPARRVVVAVGPEPDVRQAVEATATRLLARERLVLVPIDDPSAGMGASLAAAARSLPGDTDGVFVFLGDMPRIDPATPRHLAAALRDPGDIVAPTYLGRRGHPVLFGARWAPVLGALSGDEGARAIVDKAGESLVLVPVDDPGVHLDVDRPSDLARVQTDRRTLLEHHHHHH”, the protein production entry is “not failed”.
With “MTQRRATRRRFLMGCSAIASVGLAGCTGGDESTATDSTPSPTDDGDAEPTTTTDEPPATDTATATPDQEAVETLVSVGGDRVPENMALGPDGGLYFGITAGEVRRVPAAETGATGLSLEDTEQIATLPGAIGVEAAPDGTVYVAVATQDDQAGVWEIPLDGDAAQLVEMGGFPNDIHYDADQERLLVTESQNGVVYAVTTDGERSTWLDDDRLETESFGANGITRDADGDIFVAVTRAPEETGRLLRVPVESDGAAGEPSMFFEGGAIFGADGITSRDGDIYVAANSQNRVVRVTADGTTDVVATADNGLVFPSDVLFRTGDQQESLFICNFANQSPEDGAILRTSVPR”, the protein production entry is reported as “failed”.
Turning to “MTQSALHTEFGGIAALRDALARRQVSAVELAQSGLDAAQAASGLNAFLHIDPELTLAQARAADAALAAGTAGPLAGIPIAHKDAFVTRGWRTTAGSKMLAGYASPFDATVVERLAEAGAVSLGKLNCDEFAMGSGNENSAYGPVRNPWDTRAVPGGSSGGSAAAVAARLVAAATGTDTGGSVRQPAALCGVSGIKPTYGTVSRYGMIAFGSSLDQAGPLAPSSRDLLELLDVMTGFDPRDATSLQACDGQANESGRVRRGHDAAQAGYDAAGSQPLKGLRIGVPQEYFGAGLAPDVAAAVEAALAQFEQLGAVRVPVSLPRTELAIPAYYVIAPAEASSNLARYDGVRYGHRAAQYGDLNEMISRSRAEGFGDEVKRRILIGTYVLSHGYYDAYYLQAQRLRRLIAQDFQRAFADQCDVIMGPVSPTVAKNIGDNRDDPTADWLADVYTLGVSLAGLPAMSVPCGFGGQDGRRPVGLQIIGNYFDEGRLLALADRYQQVTDWHQRAPVSQDA”, the protein production result is given as “failed”.
In the case of “MTQTGSARFEGDSWDLASSVGLTATMVAAARAVAGRAPGALVNDQFAEPLVRAVGVDFFVRMASGELDPDELAEDEANGLRRFADAMAIRTHYFDNFFLDATRAGIRQAVILASGLDSRAYRLRWPAGTIVFEVDQPQVIDFKTTTLAGLGAAPTTDRRTVAVDLRDDWPTALQKAGFDNAQRTAWIAEGLLGYLSAEAQDRLLDQITAQSVPGSQFATEVLRDINRLNEEELRGRMRRLAERFRRHGLDLDMSGLVYFGDRTDARTYLADHGWRTASASTTDLLAEHGLPPIDGDDAPFGEVIYVSAELKQKHQDTR”, the protein production result is reported as “not failed”.
Regarding “MTQVIIDGDACPVTNSIIELTKGTGIFVTVVRSFSHFSTVIQPEHVNIIYVDDGPDAVDYRIVKLVHSDDLVVTQDYGLASLLLNKAKIVMHHKGLEHHHHHH”, the protein production entry is recorded as “failed”.
Turning to “MTRAKQIILWASLSAMPLIAQASERSDDEIKALVYQAILERPEIILQAVEQLQQAEEAAQAASAHAALTENRDSLFNDPNAPVLGNPEGDVTVVEFFDYNCPYCRRAMAEVQGLVDADPNVRLVYREWPILGEGSDFAARAALAARQQGKYEAFHWALMGMSGKANETGVLRIAREVGLDTEQLQRDMEAPEVTAHIAQSMALAQKLGFNGTPSFVVEDALVPGFVEQSQLQDAVDRARKAAAK”, the protein production entry is “failed”.
Regarding “MTRAPSGGTEAPPGRTARRAGWDGRCQAAGHRSRRGGLSTGGDEVSTSDSDDAGLRSFLADPAHLTLDLRTATARCVKALGLRHAVVYLVDLQQRHLVPQTAVAPSVPVDGSPAGWAYRTQSLRVEESGTGGGITAWFPLLDGAERLGVLALCETALTASSLTRGRALASLLAMVITSKRLYEDSFVRRTRTERMTLPAEMLRALLPPRTIGNGNVVSTAVLEPAYEIGGDAFDHALTETTLHVAVLDAMGHDLASGLTTTVSLAACRNARRTGADLPELVRSVDEALSSWLPDKFCTSVIAQLDLVTGVLRWANCGHPAPILIRDQRLVIDAMERDADPPMGMPSLLSPHARRTHEISLEPGDRVLMYTDGVVEARTREAKLLGLERFADYVIRATAGGELAPESLRRLIHSILAMQEGRLRDDATLLMFEWRPPS”, the protein production result was “failed”.
The value for “MTRKKLNLSYITNESMRKATFNKRKKGLVKKIHELSVLCGIEACAVIYSPFNSNPEVWPSNSEVKNVMENFEMLTKLEQEKKMVSHEGFIRQNISKTMESNNKKMIDNAERTMKEAMFQLLSGKGEKLNLTDRNREDLCKYIDQYLKELYHHKNKTINQSHIEPGESSGATNAMTPTSVVENPNFNHLSHNQYQYQQQFGYPILVQDGIYNPSQIQNQHEEWLDDHMMNHSKEISHPLMDDNNFYYQQP” was “not failed”; that for “MTRLIQAIFILGFAAFVACTPKSAKSFAKAEVQYKQAEYQHAIENYQQSLSEGGDVAQCNYYIAESYRRSNRIQEAEPFYKKAIEAGIKDEEAHFFYANALKSVGNYEGAATQYKQYIKTGSNFDYINRAKKELENLKALQEVVEKETYYKVENIGQINSPEAEYAPYIYKNQLYFTSSRDAEKMHAATGTGFTNIHEYVFDGVEKFSGQSVPLSNAINTDGAHEASCILTKDGKTMIFARGNSGAKKGPQDVDLFKTTLQSDGKWSEPVMLAINDPAAWDACPALSLDEKTLYFASNREAEGALGNVDIYKATLDEKGEWSNPVNIGAPINTRGNDMYPSFNKDGKFYFASDGHPSLGSLDIFYVDPKESKIVNMGKPINTSYDDFGLVWKDSLEGYFASNRIDNGAKGDDDIYFVRNTFWDRRAKYYVDGTSFAKSKKNPKAILPNSIIYLLSCKGDTLKSIVSDTEGKFEFELKPDTCYYLAAHSDKYFAMPKSEWTPVKIATVPIKDLDIGDNSIKKKAEVMLVKKERIVIVRNILYDYDKWDIRPDAAVELDTMVMLMNANPEIQIELGSHTDERGSAEYNRVLAQKRAQAAVDYIIAHGISKDRIIAKGYGEDEPAIRNAKTEADHQTNRRTTFKVLNHFSDELEIKSGE” was “failed”.
As to “MTRQGWLVPCLSHGKDDQLQDELSELSKAYRKKFQTDLHTKSGDIIDPSGEFLYVYLDEENYRICRQSMVLVSNAPDGLIATTLEPYSDSYTFRQVREQLQAFSGDGGRINYSRNEHSSSYFLTIQASNEFKHVGAVRNTFGQSKDIWKRRMPDASQPLDYHLIAVGCSAFLPEAALDDVESDGAVLEHHHHHH”, the protein production entry is “not failed”.
